These results are taken from PMC3447998 (Biochemistry, 2012).

Where no end group is shown, it is not given here. Me3 = trimethylated alpha-amino group on the N-terminal residue; Me2 = dimethylated alpha-amino group on the N-terminal residue

Test [1] deals with T1, recombinant human NRMT (N-terminal RCC1 methyltransferase) (human, UniProt Q9BV86 1-223).
T1 sequence (looked up): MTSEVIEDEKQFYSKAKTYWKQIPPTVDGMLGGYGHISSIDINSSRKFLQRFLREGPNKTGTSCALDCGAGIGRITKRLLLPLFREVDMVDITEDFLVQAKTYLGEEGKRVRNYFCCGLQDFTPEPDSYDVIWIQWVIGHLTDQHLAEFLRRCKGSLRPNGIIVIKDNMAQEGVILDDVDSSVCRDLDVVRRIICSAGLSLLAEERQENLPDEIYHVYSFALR
The experiment in a line: ITC.

The target in test [2] is T1, recombinant human NRMT (N-terminal RCC1 …). Briefly: ITC. This is another data set of the same source. On the technique in general: Isothermal titration calorimetry measures the heat released or taken up as one component is titrated into another.

B1: me3SPKRIAKRRS, 10-residue me3-SPK-RCC1 N-terminal product peptide (peptide)
peptide: Me3-SPKRIAKRRS
By Kd is commonly meant a measure of binding affinity in units of concentration. One may read the stoichiometry N as a count of units in the complex or per binding partner. With B1, in test [1], the Ka worked out at 480000 M⁻¹. Further, in test [2], the Kd was found to be 2000 nM, the dH was -4.33 kcal/mol and the “stoichiometry N” value worked out at 1.2.

B2: SPKRIAKRRS, wild-type 10-residue SPK-RCC1 N-terminal peptide (peptide)
peptide: SPKRIAKRRS
Turning to B2, the Ka in test [1] is 100000 M⁻¹. In addition, in test [2], the Kd stood at 10000 nM, the dH was -9.94 ± 0.207 kcal/mol and the “stoichiometry N” value amounted to 0.8.

B3: me2PPKRIAKRRS, 10-residue me2-PPK-RCC1 N-terminal product peptide (peptide)
peptide: Me2-PPKRIAKRRS
Turning to B3, the Ka in test [1] was 770000 M⁻¹. In test [2], the Kd came out at 1300 nM, the dH is -5.77 ± 0.093 kcal/mol and the “stoichiometry N” value worked out at 0.9.

B4: PPKRIAKRRS, 10-residue PPK-RCC1 N-terminal peptide (peptide)
peptide: PPKRIAKRRS
B4: in test [2], the “Kd of the first phase of the bi-phasic curve” value is 1.5 nM, the “Kd of the second phase of the bi-phasic curve” value came out at 140 nM, the “dH of the first phase of the bi-phasic curve” value is -31 ± 0.221 kcal/mol and the “dH of the second phase of the bi-phasic curve” value is -9.43 ± 0.192 kcal/mol.
